The RNAGym collection of RNA variant scans (doi:10.1093/molbev/msab373)

B1: Azoarcus group I ribozyme (parent)
chain: GUGCCUUGCGCCGGGAAACCACGCAAGGGAUGGUGUCAAAUUCGGCGAAACCUAAGCGCCCGCCCGGGCGUAUGGCAACGCCGAGCCAAGCUUCGGCGCCUGCGCCGAUGAAGGUGUAGAGACUAGACGGCACCCACCUAAGGCAAACGCUAUGGUGAAGGCAUAGUCCAGGGAGUGGCGAAAGUCACACAAACCGG

Variants of: B1
Assay: reverse-splicing fitness (ratio to wild type); higher = more active; in vitro selection; Mg2+ level not given
How it was run: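 An in vitro group I ribozyme library with randomized positions was T7-transcribed and gel-purified. In triplicate, 10 pmol RNA in EPPS pH 7.5 was reacted with 50 pmoles of a 30-nt RNA substrate for 1 h at 37 °C across several added MgCl2 levels (1–48 mM), then stopped with EDTA. Products were reverse transcribed from a substrate-complementary primer, PCR-amplified and sequenced (HiSeq 4000). Fitness is a variant's read proportion after selection over that before, normalised to wild type.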

Row | Variant | reverse-splicing fitness
1 | GUGCCUUGCGCCGGGAAACCACGCAAGGGAUGGUGUCAAAUUCGGCGAAACCUAAGCGCCCGCCCGGGCGUAUGGCAACGCGGAGCCAAGCUUCGGCGCCUGCGCCGAUGAAGGUGUAGAGACUAGACGGCACCCACCUAAGGCGAACGUUAUGGUGAAGGCAUAGUCCAGGGAGAGGCGAAAGUCACACAAACCGG | 0.264
2 | GUGCCUUGCGCCGGGAAACCACGCAAGGGAUGGUGUCAAAUUCGGCGAAACCUAAGCGCCCGCCCGGGCGUAUGGCAACGCGGAGCCAAGCUUCGGCGCCUGCGCCGAUGAAGGUGUAGAGACUAGACGGCACCCACCUAAGGCGAACGUUAUGGUGAAGGCAUAGUCCAGGGAGCGGCGAAAGUCACACAAACCGG | 0.291
3 | GUGCCUUGCGCCGGGAAACCACGCAAGGGAUGGUGUCAAAUUCGGCGAAACCUAAGCGCCCGCCCGGGCGUAUGGCAACGCGGAGCCAAGCUUCGGCGCCUGCGCCGAUGAAGGUGUAGAGACUAGACGGCACCCACCUAAGGCGAACGUUAUGGUGAAGGCAUAGUCCAGGGAGGGGCGAAAGUCACACAAACCGG | 0.106
4 | GUGCCUUGCGCCGGGAAACCACGCAAGGGAUGGUGUCAAAUUCGGCGAAACCUAAGCGCCCGCCCGGGCGUAUGGCAACGCGGAGCCAAGCUUCGGCGCCUGCGCCGAUGAAGGUGUAGAGACUAGACGGCACCCACCUAAGGCGAACGCUAUGGUGAAGGCAUAGUCAAGGGAGAGGCGAAAGUCACACAAACCGG | 0.0187
5 | GUGCCUUGCGCCGGGAAACCACGCAAGGGAUGGUGUCAAAUUCGGCGAAACCUAAGCGCCCGCCCGGGCGUAUGGCAACGCGGAGCCAAGCUUCGGCGCCUGCGCCGAUGAAGGUGUAGAGACUAGACGGCACCCACCUAAGGCGAACGCUAUGGUGAAGGCAUAGUCAAGGGAGCGGCGAAAGUCACACAAACCGG | 0.0249
6 | GUGCCUUGCGCCGGGAAACCACGCAAGGGAUGGUGUCAAAUUCGGCGAAACCUAAGCGCCCGCCCGGGCGUAUGGCAACGCGGAGCCAAGCUUCGGCGCCUGCGCCGAUGAAGGUGUAGAGACUAGACGGCACCCACCUAAGGCGAACGGUAUGGUGAAGGCAUAGUCUAGGGAGGGGCGAAAGUCACACAAACCGG | 0.0072
7 | GUGCCUUGCGCCGGGAAACCACGCAAGGGAUGGUGUCAAAUUCGGCGAAACCUAAGCGCCCGCCCGGGCGUAUGGCAACGCGGAGCCAAGCUUCGGCGCCUGCGCCGAUGAAGGUGUAGAGACUAGACGGCACCCACCUAAGGCGAACGGUAUGGUGAAGGCAUAGUCUAGGGAGAGGCGAAAGUCACACAAACCGG | 0.0126
8 | GUGCCUUGCGCCGGGAAACCACGCAAGGGAUGGUGUCAAAUUCGGCGAAACCUAAGCGCCCGCCCGGGCGUAUGGCAACGCGGAGCCAAGCUUCGGCGCCUGCGCCGAUGAAGGUGUAGAGACUAGACGGCACCCACCUAAGGCGAACGGUAUGGUGAAGGCAUAGUCUAGGGAGCGGCGAAAGUCACACAAACCGG | 0.0131
9 | GUGCCUUGCGCCGGGAAACCACGCAAGGGAUGGUGUCAAAUUCGGCGAAACCUAAGCGCCCGCCCGGGCGUAUGGCAACGCGGAGCCAAGCUUCGGCGCCUGCGCCGAUGAAGGUGUAGAGACUAGACGGCACCCACCUAAGGCGAACGUUAUGGUGAAGGCAUAGUCAAGGGAGAGGCGAAAGUCACACAAACCGG | 0.0169
10 | GUGCCUUGCGCCGGGAAACCACGCAAGGGAUGGUGUCAAAUUCGGCGAAACCUAAGCGCCCGCCCGGGCGUAUGGCAACGCGGAGCCAAGCUUCGGCGCCUGCGCCGAUGAAGGUGUAGAGACUAGACGGCACCCACCUAAGGCGAACGUUAUGGUGAAGGCAUAGUCAAGGGAGCGGCGAAAGUCACACAAACCGG | 0.0162
11 | GUGCCUUGCGCCGGGAAACCACGCAAGGGAUGGUGUCAAAUUCGGCGAAACCUAAGCGCCCGCCCGGGCGUAUGGCAACGCGGAGCCAAGCUUCGGCGCCUGCGCCGAUGAAGGUGUAGAGACUAGACGGCACCCACCUAAGGCGAACGUUAUGGUGAAGGCAUAGUCAAGGGAGGGGCGAAAGUCACACAAACCGG | 0.00619
12 | GUGCCUUGCGCCGGGAAACCACGCAAGGGAUGGUGUCAAAUUCGGCGAAACCUAAGCGCCCGCCCGGGCGUAUGGCAACGCGGAGCCAAGCUUCGGCGCCUGCGCCGAUGAAGGUGUAGAGACUAGACGGCACCCACCUAAGGCGAACGGUAUGGUGAAGGCAUAGUCUAGGGAGUGGCGAAAGUCACACAAACCGG | 0.011
13 | GUGCCUUGCGCCGGGAAACCACGCAAGGGAUGGUGUCAAAUUCGGCGAAACCUAAGCGCCCGCCCGGGCGUAUGGCAACGCGGAGCCAAGCUUCGGCGCCUGCGCCGAUGAAGGUGUAGAGACUAGACGGCACCCACCUAAGGCGAACGGUAUGGUGAAGGCAUAGUCGAGGGAGUGGCGAAAGUCACACAAACCGG | 0.00848
14 | GUGCCUUGCGCCGGGAAACCACGCAAGGGAUGGUGUCAAAUUCGGCGAAACCUAAGCGCCCGCCCGGGCGUAUGGCAACGCGGAGCCAAGCUUCGGCGCCUGCGCCGAUGAAGGUGUAGAGACUAGACGGCACCCACCUAAGGCGAACGGUAUGGUGAAGGCAUAGUCGAGGGAGAGGCGAAAGUCACACAAACCGG | 0.0113
15 | GUGCCUUGCGCCGGGAAACCACGCAAGGGAUGGUGUCAAAUUCGGCGAAACCUAAGCGCCCGCCCGGGCGUAUGGCAACGCGGAGCCAAGCUUCGGCGCCUGCGCCGAUGAAGGUGUAGAGACUAGACGGCACCCACCUAAGGCGAACGGUAUGGUGAAGGCAUAGUCGAGGGAGGGGCGAAAGUCACACAAACCGG | 0.00613
